According to the supplement of paper PMC10598134:
± gives the standard deviation.

Assay: collision cross section of modified peptide (TIMS, N2, iRT-aligned); higher = larger / more extended gas-phase ion
Procedure, shortened: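 Collision cross section was derived from the Mason-Schamp equation. Each value averages 1–3 technical replicates of the most abundant feature per charge state, measured on a timsTOF Pro/HT in dda-PASEF mode (nitrogen, ~2.4 mbar) after a 120-min nanoflow C18 gradient at 60 °C. Synthetic peptide pools (~100 fmol/µL in 2% acetonitrile/0.1% formic acid, iRT standard spiked 1:40) were identified with MaxQuant, and 1/K0 was calibrated with three reference ions and aligned run-wise to the median iRT peptide deviation.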

[1] = charge state: 2, modification: Formyl
[2] = charge state: 2, modification: Propionyl
[3] = charge state: 2, modification: hydroxyisobutyryl
[4] = charge state: 2, modification: Citrullination (R)
[5] = charge state: 2, modification: Methyl (K)
[6] = charge state: 3, modification: Methyl (K)
[7] = charge state: 2, modification: Glutarylation
[8] = charge state: 3, modification: Methyl (R)
[9] = charge state: 2, modification: Biotin
[10] = charge state: 2, modification: Crotonyl
[11] = charge state: 2, modification: Succinyl
[12] = charge state: 2, modification: Acetyl (K)
[13] = charge state: 3, modification: Acetyl (K)
[14] = charge state: 2, modification: GlyGly (K)
[15] = charge state: 3, modification: GlyGly (K)
[16] = charge state: 3, modification: Propionyl
[17] = charge state: 3, modification: Hydroxyproline
[18] = charge state: 3, modification: Crotonyl
[19] = charge state: 2, modification: Malonyl
[20] = charge state: 2, modification: Butyryl
[21] = charge state: 3, modification: Formyl
[22] = charge state: 2, modification: Hydroxyproline
[23] = charge state: 3, modification: Succinyl
[24] = charge state: 2, modification: Dimethyl (K)
[25] = charge state: 3, modification: Dimethyl (K)

Substance LAEEENKAK [_LAEEENK(Formyl)AK_] has a collision cross section [1] of 342.64 ± 1.5 Å².

For IQQELQTAKK [_IQQELQTAK(Propionyl)K_], the collision cross section [2] was 379.28 ± 0.65 Å².

Substance “DYSSGFGGKYGVQADR [_DYSSGFGGK(hydroxyisobutyryl)YGVQADR_]” has a collision cross section [3] of 442.2 ± 0.79 Å².

For “LVLPSQAQARLPSGEVVK [_LVLPSQAQAR(Citrullination (R))LPSGEVVK_]”, the collision cross section [4] was 464.28 ± 0.94 Å² and the collision cross section (charge state: 3, modification: Citrullination (R)) was 522.33 ± 4.3 Å².

Work on “PASGAGAGAGAGKR [_PASGAGAGAGAGK(Methyl (K))R_]” yielded a collision cross section [5] of 381.78 ± 0.91 Å² and a collision cross section [6] of 459.46 ± 3.9 Å².

In the case of “IDLPAENSNSETIIITGKR [_IDLPAENSNSETIIITGK(Gluratylation)R_]”, the collision cross section [7] is reported as 499.21 ± 1.9 Å².

With “GGPGGELPRGPQAGLGPR [_GGPGGELPR(Methyl (R))GPQAGLGPR_]” the collision cross section [8] was 497.33 ± 2 Å².

For “SEASSEFAKK [_SEASSEFAK(Gluratylation)K_]”, the collision cross section [7] was 358.01 ± 0.65 Å².

GEVQVSDKER [_GEVQVSDK(Formyl)ER_] showed a collision cross section [1] of 353.55 ± 2.5 Å².

Substance “ANLEKAQAELVGTADEATR [_ANLEK(Biotin)AQAELVGTADEATR_]” has a collision cross section [9] of 492.92 Å².

“DKALPLEAEVAPVK [_DK(Crotonyl)ALPLEAEVAPVK_]” showed a collision cross section [10] of 411.34 ± 0.34 Å².

“IPQEKCILQTDVK [_IPQEK(Succinyl)CILQTDVK_]” showed a collision cross section [11] of 432.46 ± 0.51 Å².

Substance “IPQEKCILQTDVK [_IPQEK(Crotonyl)CILQTDVK_]” has a collision cross section [10] of 433.54 Å².

VETTVTSLKTK [_VETTVTSLK(Acetyl (K))TK_] gave a collision cross section [12] of 378.83 ± 0.45 Å² and a collision cross section [13] of 444.47 Å².

For “SLGEPAAGEGSAKR [_SLGEPAAGEGSAK(hydroxyisobutyryl)R_]”, the collision cross section [3] was 389.47 ± 1.5 Å² and the collision cross section (charge state: 3, modification: hydroxyisobutyryl) was 485.86 ± 2.8 Å².

“SNEEGSEEKGPEVR [_SNEEGSEEK(GlyGly (K))GPEVR_]” gave a collision cross section [14] of 409.13 ± 2.5 Å² and a collision cross section [15] of 474.76 ± 1.1 Å².

With “HELQANCYEEVKDR [_HELQANCYEEVK(GlyGly (K))DR_]” the collision cross section [15] was 529.53 ± 1.6 Å².

Work on DLGKFQVATDALK [_DLGK(Formyl)FQVATDALK_] yielded a collision cross section [1] of 403.92 ± 0.55 Å².

With “LQEKVESAQSEQK [_LQEK(Propionyl)VESAQSEQK_]” the collision cross section [2] was 417.86 ± 1.3 Å² and the collision cross section [16] was 502.35 ± 1.5 Å².

Work on “GPPRGGPGGELPR [_GPPR(Methyl (R))GGPGGELPR_]” yielded a collision cross section [8] of 472.6 ± 2.6 Å².

In the case of “KDYQPGITFIVVQK [_KDYQP(Hydroxyproline)GITFIVVQK_]”, the collision cross section [17] is reported as 502.4 Å².

In the case of “IHVQSSSDSSDEPAEKR [_IHVQSSSDSSDEPAEK(Propionyl)R_]”, the collision cross section [16] is reported as 506.45 ± 1.4 Å².

Work on “GTISAPGKVVTAAAQAK [_GTISAPGK(Crotonyl)VVTAAAQAK_]” yielded a collision cross section [10] of 447.33 ± 0.83 Å² and a collision cross section [18] of 518.96 ± 1.2 Å².

In the case of VNALKNLQVK [_VNALK(Malonyl)NLQVK_], the collision cross section [19] is reported as 368.09 ± 0.62 Å².

Work on IGNSYFKEEK [_IGNSYFK(Formyl)EEK_] yielded a collision cross section [1] of 368.62 ± 0.55 Å².

Work on LDHLAEKFR [_LDHLAEK(Butyryl)FR_] yielded a collision cross section [20] of 377.54 ± 1.3 Å² and a collision cross section (charge state: 3, modification: Butyryl) of 440.5 ± 3.8 Å².

“VPTTEKPTVTVNFR [_VPTTEK(Formyl)PTVTVNFR_]” gave a collision cross section [1] of 425.05 ± 5 Å² and a collision cross section [21] of 502.93 ± 1.3 Å².

“TQAYQDQKPGTSGLR [_TQAYQDQK(Gluratylation)PGTSGLR_]” gave a collision cross section [7] of 436.36 ± 1.1 Å² and a collision cross section (charge state: 3, modification: Glutarylation) of 483.65 ± 1 Å².

In the case of “SGNLTEDDKHNNAK [_SGNLTEDDK(Formyl)HNNAK_]”, the collision cross section [1] is reported as 415.1 ± 1.8 Å² and the collision cross section [21] is reported as 466.8 ± 1.3 Å².

Work on “STLEEPNLQPLQR [_S(HexNAc (ST))TLEEPNLQPLQR_]” yielded a collision cross section (charge state: 2, modification: HexNAc (ST)) of 436.25 ± 0.56 Å².

With “VGVEVPDVNIEGPEGKLK [_VGVEVPDVNIEGPEGK(Acetyl (K))LK_]” the collision cross section [12] was 456.04 ± 2.4 Å² and the collision cross section [13] was 513.89 Å².

With VQFAPEK [_VQFAP(Hydroxyproline)EK_] the collision cross section [22] was 316.39 ± 1.9 Å².

Work on “SRFYSGFNSR [_SR(Citrullination (R))FYSGFNSR_]” yielded a collision cross section [4] of 364.39 ± 0.53 Å².

In the case of “TFGKAAGPSLSHTSGGTQSK [_TFGK(Malonyl)AAGPSLSHTSGGTQSK_]”, the collision cross section (charge state: 3, modification: Malonyl) is reported as 514.27 ± 0.92 Å².

In the case of “IVEKYGYTHLSAGELLR [_IVEK(Succinyl)YGYTHLSAGELLR_]”, the collision cross section [11] is reported as 498.62 ± 0.45 Å² and the collision cross section [23] is reported as 565.13 ± 1.1 Å².

For “VGIDTPDIDIHGPEGKLK [_VGIDTPDIDIHGPEGK(Succinyl)LK_]”, the collision cross section [11] was 494.78 Å² and the collision cross section [23] was 540.29 ± 1.1 Å².

For “TEVLSPNSKVESK [_TEVLSPNSK(Propionyl)VESK_]”, the collision cross section [2] was 413.62 ± 0.97 Å² and the collision cross section [16] was 453.73 Å².

Work on ASAISIKLGSSK [_ASAISIK(Formyl)LGSSK_] yielded a collision cross section [1] of 364.8 ± 0.89 Å².

DVNAAIAAIKTK [_DVNAAIAAIK(Crotonyl)TK_] gave a collision cross section [10] of 406.32 ± 0.28 Å² and a collision cross section [18] of 463.44 ± 4.2 Å².

With “DLSTVEALQNLKNLK [_DLSTVEALQNLK(Dimethyl (K))NLK_]” the collision cross section [24] was 476.15 ± 1.7 Å² and the collision cross section [25] was 513.29 ± 0.57 Å².

Substance TPNLYIYSKK [_TPNLYIYSK(Malonyl)K_] has a collision cross section [19] of 383.2 ± 0.78 Å².

With “PSVSTKLISK [_PSVSTK(hydroxyisobutyryl)LISK_]” the collision cross section [3] was 359.8 ± 1.9 Å².

With SGFGKFER [_SGFGK(Butyryl)FER_] the collision cross section [20] was 337.09 ± 1.2 Å².

Substance “ALASIDSKLNQAK [_ALASIDSK(Methyl (K))LNQAK_]” has a collision cross section [5] of 411.6 ± 0.9 Å² and a collision cross section [6] of 462.35 ± 4.6 Å².

For “GAEKTEVAEPR [_GAEK(Dimethyl (K))TEVAEPR_]”, the collision cross section [24] was 374.44 ± 1.3 Å² and the collision cross section [25] was 439.06 ± 1.6 Å².

ISALQGKLSK [_ISALQGK(Crotonyl)LSK_] showed a collision cross section [10] of 358.67 ± 0.88 Å².

“GEQGEPGAPGIRTGIQGLK [_GEQGEPGAP(Hydroxyproline)GIRTGIQGLK_]” showed a collision cross section [22] of 450.73 ± 0.4 Å² and a collision cross section [17] of 502.77 ± 1.3 Å².

Work on “PANEKATDDYHYEK [_PANEK(Crotonyl)ATDDYHYEK_]” yielded a collision cross section [10] of 442.98 ± 0.0094 Å² and a collision cross section [18] of 509.39 ± 1.3 Å².

“TEVLSPNSKVESK [_TEVLSPNSK(GlyGly (K))VESK_]” gave a collision cross section [14] of 404.73 ± 5.7 Å² and a collision cross section [15] of 492.13 ± 0.88 Å².

“PGSPGPPGSPGPR [_PGSP(Hydroxyproline)GPPGSPGPR_]” gave a collision cross section [17] of 422.04 ± 4.8 Å².

“ALASIDSKLNQAK [_ALASIDSK(Dimethyl (K))LNQAK_]” showed a collision cross section [24] of 412.97 ± 1.1 Å² and a collision cross section [25] of 457.79 ± 2.1 Å².

In the case of LQEKVESAQSEQK [_LQEK(Formyl)VESAQSEQK_], the collision cross section [1] is reported as 410.52 ± 1.2 Å² and the collision cross section [21] is reported as 496.47 ± 0.53 Å².

Substance “ANLEKAQAELVGTADEATR [_ANLEK(Dimethyl (K))AQAELVGTADEATR_]” has a collision cross section [25] of 525.41 ± 0.76 Å².

“GDTGLPGPQGIPGGVGSPGR [_GDTGLPGPQGIP(Hydroxyproline)GGVGSPGR_]” gave a collision cross section [22] of 430.06 ± 1.1 Å².

“TLTPASSPVSSPSKHGDR [_TLTPASSPVSSPS(HexNAc (ST))KHGDR_]” showed a collision cross section (charge state: 3, modification: HexNAc (ST)) of 519.55 ± 0.18 Å².

“IHVQSSSDSSDEPAEKR [_IHVQSSSDSSDEPAEK(Trimethyl (K))R_]” gave a collision cross section (charge state: 3, modification: Trimethyl (K)) of 528.1 ± 1.6 Å².

For TTEETSKPK [_TTEETSK(Malonyl)PK_], the collision cross section [19] was 336.7 ± 0.59 Å².

Substance “TQDQISNIKYHEEFEK [_TQDQISNIK(Acetyl (K))YHEEFEK_]” has a collision cross section [12] of 481.39 Å² and a collision cross section [13] of 555.65 ± 0.58 Å².

“LAEQEAHYAVR [_LAEQEAHY(Phospho (Y))AVR_]” showed a collision cross section (charge state: 2, modification: Phospho (Y)) of 408.57 ± 0.76 Å² and a collision cross section (charge state: 3, modification: Phospho (Y)) of 482.98 ± 0.1 Å².

Substance ITASLCDLKSR [_ITASLCDLK(GlyGly (K))SR_] has a collision cross section [14] of 398.64 ± 0.87 Å² and a collision cross section [15] of 457.36 ± 1.1 Å².

In the case of “GRGTSQLAEGATAK [_GR(Citrullination (R))GTSQLAEGATAK_]”, the collision cross section [4] is reported as 396.62 ± 1 Å².

“DAEAAEATAEGALKAEK [_DAEAAEATAEGALK(Biotin)AEK_]” gave a collision cross section [9] of 451.86 Å² and a collision cross section (charge state: 3, modification: Biotin) of 551.51 Å².

Work on “GERGFPGYPGPK [_GERGFP(Hydroxyproline)GYPGPK_]” yielded a collision cross section [22] of 370.65 ± 1.8 Å².

In the case of KYEEIDNAPEER [_K(Formyl)YEEIDNAPEER_], the collision cross section [1] is reported as 405.5 ± 0.74 Å².

With TLQKQSVVYGGK [_TLQK(Crotonyl)QSVVYGGK_] the collision cross section [10] was 396.64 ± 0.8 Å².

“ALASIDSKLNQAK [_ALASIDSK(Butyryl)LNQAK_]” gave a collision cross section [20] of 403.96 ± 0.85 Å².

For “DDSFLGKLGGTLAR [_DDSFLGK(GlyGly (K))LGGTLAR_]”, the collision cross section [14] was 434.49 ± 0.96 Å² and the collision cross section [15] was 484.35 ± 1.9 Å².

Substance “SNEEGSEEKGPEVR [_SNEEGSEEK(Acetyl (K))GPEVR_]” has a collision cross section [12] of 400.7 ± 1 Å².
